These sequences were tested on c-Src (assay: phosphorylation enrichment, bacterial display (enrichment ratio); higher = better substrate or ligand; peptides without Tyr show the background).
Work on GKSHIYFWTLD [EML2_Y230_E235D] yielded a phosphorylation enrichment of 0.572. For KWTVDYLGQVG [TYW5_Y48_S50G], the phosphorylation enrichment was 0.392. With LNCIYYKDQTG [RS1_Y166_W163C] the phosphorylation enrichment was 1.4. With GMSQAYSFSQR [DES_Y5_S7F] the phosphorylation enrichment was 0.495. ADSLRYIYPKL [EIF2B3_Y92] showed a phosphorylation enrichment of 0.472. For FQLENYCNGGG [INS_Y108_YF], the phosphorylation enrichment was 0.736. GIKAAYEAELG [LMNA_Y81] gave a phosphorylation enrichment of 0.392. Work on FSMGCYEIFLG [HMGCL_Y198_S201Y_YF] yielded a phosphorylation enrichment of 6.25. With TYEPNYGTVKQ [RAPGEF6_Y1447] the phosphorylation enrichment was 1.44. MDNQEYKDAYK [BRDT_Y331] was tested, and the phosphorylation enrichment was 0.368. For DYSLKYPTDIP [APC_Y1183_A1184P], the phosphorylation enrichment was 0.442. With AFEQQYSPIPR [NOX1_Y373] the phosphorylation enrichment was 0.989. KELANYYKLHH [AK7_Y390] showed a phosphorylation enrichment of 0.509. SVDRDYVLKSA [HTATIP2_Y111_R106S] gave a phosphorylation enrichment of 0.426. For NNPAYYVLEGV [INPPL1_Y987], the phosphorylation enrichment was 1.63. Work on SSDPDYRAAVD [GLB1_Y154_L155R] yielded a phosphorylation enrichment of 0.409. TNIKRYHIAKV [HARS1_Y150] was tested, and the phosphorylation enrichment was 0.348. MKKKIYAMGGG [GAN_Y424] showed a phosphorylation enrichment of 0.393. For VQDPAYLRDID [OPRK1_Y369], the phosphorylation enrichment was 0.425. Sequence DCAAIYGNEPD [AKR1A1_Y50_E55D] has a phosphorylation enrichment of 1.65. NWGSPYKSDGC [ZNF347_Y261_N264D] showed a phosphorylation enrichment of 0.397. Sequence SRNKPYISWPS [CDC42BPB_Y1638] has a phosphorylation enrichment of 0.483. Work on QKDIFYGLRSL [IGSF10_Y126_T124I] yielded a phosphorylation enrichment of 0.923. LENSTYQYICV [CRB1_Y760_R764C] showed a phosphorylation enrichment of 3.5. Work on ASRKYYAMKIL [AKT3_Y174_G171R] yielded a phosphorylation enrichment of 0.265. For VLTPKYRGGGG [HBA1_Y141_S139P], the phosphorylation enrichment was 0.34. With SLNEEYTKNKT [MSH2_Y563] the phosphorylation enrichment was 0.426. For DWRQEYVLNES [TGM1_Y267], the phosphorylation enrichment was 1.36. In the case of EAESWYQTKYE [KRT75_Y342], the phosphorylation enrichment is reported as 0.62. HNMPIYEGYAL [ACTA1_Y168_V165M] showed a phosphorylation enrichment of 10.4. With FFNSEYGELSE [FLT4_Y1337_YF] the phosphorylation enrichment was 1.25. QFPDIYAREEV [CRX_Y67_V66I_YF] was tested, and the phosphorylation enrichment was 1.23. In the case of NTADYYDLYGG [PTPN11_Y63_G60A], the phosphorylation enrichment is reported as 5.99.

Each sequence was assayed against Grb2 SH2 (UniProt P62993) (assay: SH2 binding enrichment of the phosphorylated peptide, bacterial display (enrichment ratio); higher = better substrate or ligand; peptides without Tyr show the background).
Grb2 SH2, sequence (P62993 whole entry, looked up): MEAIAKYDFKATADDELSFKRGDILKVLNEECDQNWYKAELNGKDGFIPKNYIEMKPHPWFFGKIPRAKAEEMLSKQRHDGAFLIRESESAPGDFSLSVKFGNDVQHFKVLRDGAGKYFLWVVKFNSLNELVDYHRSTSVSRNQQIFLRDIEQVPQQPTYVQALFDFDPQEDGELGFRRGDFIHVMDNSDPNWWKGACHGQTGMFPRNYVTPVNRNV
GKSHIYFWTLD [EML2_Y230_E235D] was tested, and the SH2 binding enrichment was 0.703. In the case of KWTVDYLGQVG [TYW5_Y48_S50G], the SH2 binding enrichment is reported as 1.04. For LNCIYYKDQTG [RS1_Y166_W163C], the SH2 binding enrichment was 0.867. GMSQAYSFSQR [DES_Y5_S7F] was tested, and the SH2 binding enrichment was 0.818. ADSLRYIYPKL [EIF2B3_Y92] gave an SH2 binding enrichment of 1.05. For FQLENYCNGGG [INS_Y108_YF], the SH2 binding enrichment was 1.29. In the case of GIKAAYEAELG [LMNA_Y81], the SH2 binding enrichment is reported as 0.875. FSMGCYEIFLG [HMGCL_Y198_S201Y_YF] was tested, and the SH2 binding enrichment was 0.938. For TYEPNYGTVKQ [RAPGEF6_Y1447], the SH2 binding enrichment was 0.748. With MDNQEYKDAYK [BRDT_Y331] the SH2 binding enrichment was 0.814. With DYSLKYPTDIP [APC_Y1183_A1184P] the SH2 binding enrichment was 0.765. AFEQQYSPIPR [NOX1_Y373] was tested, and the SH2 binding enrichment was 0.772. Sequence KELANYYKLHH [AK7_Y390] has an SH2 binding enrichment of 0.825. In the case of SVDRDYVLKSA [HTATIP2_Y111_R106S], the SH2 binding enrichment is reported as 0.74. In the case of NNPAYYVLEGV [INPPL1_Y987], the SH2 binding enrichment is reported as 0.803. SSDPDYRAAVD [GLB1_Y154_L155R] gave an SH2 binding enrichment of 0.78. In the case of TNIKRYHIAKV [HARS1_Y150], the SH2 binding enrichment is reported as 0.967. Sequence MKKKIYAMGGG [GAN_Y424] has an SH2 binding enrichment of 1.15. Work on VQDPAYLRDID [OPRK1_Y369] yielded an SH2 binding enrichment of 1.14. In the case of DCAAIYGNEPD [AKR1A1_Y50_E55D], the SH2 binding enrichment is reported as 1.11. In the case of NWGSPYKSDGC [ZNF347_Y261_N264D], the SH2 binding enrichment is reported as 0.768. SRNKPYISWPS [CDC42BPB_Y1638] gave an SH2 binding enrichment of 1.61. In the case of QKDIFYGLRSL [IGSF10_Y126_T124I], the SH2 binding enrichment is reported as 0.9. With LENSTYQYICV [CRB1_Y760_R764C] the SH2 binding enrichment was 0.715. Sequence ASRKYYAMKIL [AKT3_Y174_G171R] has an SH2 binding enrichment of 1.1. VLTPKYRGGGG [HBA1_Y141_S139P] gave an SH2 binding enrichment of 1.03. SLNEEYTKNKT [MSH2_Y563] was tested, and the SH2 binding enrichment was 0.988. For DWRQEYVLNES [TGM1_Y267], the SH2 binding enrichment was 0.856. EAESWYQTKYE [KRT75_Y342] was tested, and the SH2 binding enrichment was 0.858. For HNMPIYEGYAL [ACTA1_Y168_V165M], the SH2 binding enrichment was 0.71. FFNSEYGELSE [FLT4_Y1337_YF] gave an SH2 binding enrichment of 0.943. QFPDIYAREEV [CRX_Y67_V66I_YF] gave an SH2 binding enrichment of 1.02. Sequence NTADYYDLYGG [PTPN11_Y63_G60A] has an SH2 binding enrichment of 1.05.

The sequences below were run against SHP2-C SH2 in the same assay as above.
GKSHIYFWTLD [EML2_Y230_E235D] gave an SH2 binding enrichment of 0.712. KWTVDYLGQVG [TYW5_Y48_S50G] was tested, and the SH2 binding enrichment was 0.918. For LNCIYYKDQTG [RS1_Y166_W163C], the SH2 binding enrichment was 0.743. GMSQAYSFSQR [DES_Y5_S7F] gave an SH2 binding enrichment of 0.747. With ADSLRYIYPKL [EIF2B3_Y92] the SH2 binding enrichment was 1.89. Work on FQLENYCNGGG [INS_Y108_YF] yielded an SH2 binding enrichment of 0.674. GIKAAYEAELG [LMNA_Y81] gave an SH2 binding enrichment of 0.727. FSMGCYEIFLG [HMGCL_Y198_S201Y_YF] gave an SH2 binding enrichment of 0.706. Work on TYEPNYGTVKQ [RAPGEF6_Y1447] yielded an SH2 binding enrichment of 0.696. Work on MDNQEYKDAYK [BRDT_Y331] yielded an SH2 binding enrichment of 1.05. For DYSLKYPTDIP [APC_Y1183_A1184P], the SH2 binding enrichment was 0.666. AFEQQYSPIPR [NOX1_Y373] was tested, and the SH2 binding enrichment was 0.724. KELANYYKLHH [AK7_Y390] showed an SH2 binding enrichment of 0.622. With SVDRDYVLKSA [HTATIP2_Y111_R106S] the SH2 binding enrichment was 0.927. NNPAYYVLEGV [INPPL1_Y987] was tested, and the SH2 binding enrichment was 1.02. Work on SSDPDYRAAVD [GLB1_Y154_L155R] yielded an SH2 binding enrichment of 0.668. With TNIKRYHIAKV [HARS1_Y150] the SH2 binding enrichment was 0.986. For MKKKIYAMGGG [GAN_Y424], the SH2 binding enrichment was 0.979. In the case of VQDPAYLRDID [OPRK1_Y369], the SH2 binding enrichment is reported as 1.04. DCAAIYGNEPD [AKR1A1_Y50_E55D] gave an SH2 binding enrichment of 0.813. Work on NWGSPYKSDGC [ZNF347_Y261_N264D] yielded an SH2 binding enrichment of 0.587. Sequence SRNKPYISWPS [CDC42BPB_Y1638] has an SH2 binding enrichment of 1.51. For QKDIFYGLRSL [IGSF10_Y126_T124I], the SH2 binding enrichment was 1.14. Work on LENSTYQYICV [CRB1_Y760_R764C] yielded an SH2 binding enrichment of 0.526. Sequence ASRKYYAMKIL [AKT3_Y174_G171R] has an SH2 binding enrichment of 1.14. In the case of VLTPKYRGGGG [HBA1_Y141_S139P], the SH2 binding enrichment is reported as 0.691. Sequence SLNEEYTKNKT [MSH2_Y563] has an SH2 binding enrichment of 0.663. DWRQEYVLNES [TGM1_Y267] was tested, and the SH2 binding enrichment was 0.702. EAESWYQTKYE [KRT75_Y342] showed an SH2 binding enrichment of 0.437. HNMPIYEGYAL [ACTA1_Y168_V165M] gave an SH2 binding enrichment of 0.893. Sequence FFNSEYGELSE [FLT4_Y1337_YF] has an SH2 binding enrichment of 0.734. Work on QFPDIYAREEV [CRX_Y67_V66I_YF] yielded an SH2 binding enrichment of 0.9. NTADYYDLYGG [PTPN11_Y63_G60A] was tested, and the SH2 binding enrichment was 0.81.

Each sequence was assayed against c-Src SH2 in the same assay as above.
In the case of GKSHIYFWTLD [EML2_Y230_E235D], the SH2 binding enrichment is reported as 0.387. With KWTVDYLGQVG [TYW5_Y48_S50G] the SH2 binding enrichment was 0.494. Sequence LNCIYYKDQTG [RS1_Y166_W163C] has an SH2 binding enrichment of 0.551. Sequence GMSQAYSFSQR [DES_Y5_S7F] has an SH2 binding enrichment of 0.476. For ADSLRYIYPKL [EIF2B3_Y92], the SH2 binding enrichment was 12.5. With FQLENYCNGGG [INS_Y108_YF] the SH2 binding enrichment was 1.18. With GIKAAYEAELG [LMNA_Y81] the SH2 binding enrichment was 0.514. FSMGCYEIFLG [HMGCL_Y198_S201Y_YF] was tested, and the SH2 binding enrichment was 0.557. In the case of TYEPNYGTVKQ [RAPGEF6_Y1447], the SH2 binding enrichment is reported as 0.556. MDNQEYKDAYK [BRDT_Y331] showed an SH2 binding enrichment of 0.499. DYSLKYPTDIP [APC_Y1183_A1184P] showed an SH2 binding enrichment of 0.438. In the case of AFEQQYSPIPR [NOX1_Y373], the SH2 binding enrichment is reported as 0.508. KELANYYKLHH [AK7_Y390] gave an SH2 binding enrichment of 0.697. In the case of SVDRDYVLKSA [HTATIP2_Y111_R106S], the SH2 binding enrichment is reported as 0.387. In the case of NNPAYYVLEGV [INPPL1_Y987], the SH2 binding enrichment is reported as 3.65. SSDPDYRAAVD [GLB1_Y154_L155R] gave an SH2 binding enrichment of 0.627. In the case of TNIKRYHIAKV [HARS1_Y150], the SH2 binding enrichment is reported as 0.81. MKKKIYAMGGG [GAN_Y424] gave an SH2 binding enrichment of 0.679. Work on VQDPAYLRDID [OPRK1_Y369] yielded an SH2 binding enrichment of 0.564. Work on DCAAIYGNEPD [AKR1A1_Y50_E55D] yielded an SH2 binding enrichment of 0.982. For NWGSPYKSDGC [ZNF347_Y261_N264D], the SH2 binding enrichment was 0.405. In the case of SRNKPYISWPS [CDC42BPB_Y1638], the SH2 binding enrichment is reported as 1.32. Work on QKDIFYGLRSL [IGSF10_Y126_T124I] yielded an SH2 binding enrichment of 0.516. Sequence LENSTYQYICV [CRB1_Y760_R764C] has an SH2 binding enrichment of 0.522. ASRKYYAMKIL [AKT3_Y174_G171R] showed an SH2 binding enrichment of 1.18. VLTPKYRGGGG [HBA1_Y141_S139P] gave an SH2 binding enrichment of 0.557. In the case of SLNEEYTKNKT [MSH2_Y563], the SH2 binding enrichment is reported as 0.621. Sequence DWRQEYVLNES [TGM1_Y267] has an SH2 binding enrichment of 0.449. EAESWYQTKYE [KRT75_Y342] showed an SH2 binding enrichment of 0.547. In the case of HNMPIYEGYAL [ACTA1_Y168_V165M], the SH2 binding enrichment is reported as 2.93. With FFNSEYGELSE [FLT4_Y1337_YF] the SH2 binding enrichment was 0.468. In the case of QFPDIYAREEV [CRX_Y67_V66I_YF], the SH2 binding enrichment is reported as 0.525. For NTADYYDLYGG [PTPN11_Y63_G60A], the SH2 binding enrichment was 0.782.
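For SH2 binding enrichment of the phosphorylated peptide, bacterial display in this document: peptide library displayed on the E. coli surface as eCPX fusions, selected cells deep-sequenced, score is each peptide's frequency after selection divided by its frequency in the input.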
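For phosphorylation enrichment, bacterial display in this document: 11-residue human phosphosite peptides and single-mutation variants displayed on the E. coli surface, counted by deep sequencing, each peptide's frequency after selection divided by its frequency in the unselected input library; frequency after pTyr selection over input frequency; kinase dosed for 20-30% of maximal phosphorylation in three min.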
